Measurements reported in US20210130436A1 (published 2021).
Where a chain is given by its changes, count along the chain named. Names may count otherwise.

B1: variant CD80 IgV-Fc M47L (Fc fusion, not shown: small tags and cut ends; a dimerising Fc or GST)
chain: VIHVTKEVKEVATLSCGHNVSVEELAQTRIYWQKEKKMVLTMMSGDLNIWPEYKNRTIFDITNNLSIVILALRPSDEGTYECVVLKYEKDAFKREHLAEVTLSVKAD
B2: variant CD80 IgV-Fc D46V/L85Q (Fc fusion, not shown: small tags and cut ends; a dimerising Fc or GST)
chain: B1 chain with D46V, L47M, L85Q
B3: variant CD80 IgV-Fc D46V/M47L/L85Q (Fc fusion, not shown: small tags and cut ends; a dimerising Fc or GST)
chain: B1 chain with D46V, L85Q
B4: variant CD80 IgV-Fc D46V/M47L/V68M (Fc fusion, not shown: small tags and cut ends; a dimerising Fc or GST)
chain: B1 chain with D46V, V68M
B5: variant CD80 IgV-Fc D46V/V68M (Fc fusion, not shown: small tags and cut ends; a dimerising Fc or GST)
chain: B1 chain with D46V, L47M, V68M
B6: variant CD80 IgV-Fc E35D (Fc fusion, not shown: small tags and cut ends; a dimerising Fc or GST)
chain: B1 chain with E35D, L47M
B7: variant CD80 IgV-Fc E35D/D46V/L85Q (Fc fusion, not shown: small tags and cut ends; a dimerising Fc or GST)
chain: B1 chain with E35D, D46V, L47M, L85Q
B8: variant CD80 IgV-Fc E35D/D46V/M47L/L85Q (Fc fusion, not shown: small tags and cut ends; a dimerising Fc or GST)
chain: B1 chain with E35D, D46V, L85Q
B9: variant CD80 IgV-Fc E35D/D46V/M47L/V68M/L85Q (Fc fusion, not shown: small tags and cut ends; a dimerising Fc or GST)
chain: B1 chain with E35D, D46V, V68M, L85Q
B10: variant CD80 IgV-Fc E35D/K89N (Fc fusion, not shown: small tags and cut ends; a dimerising Fc or GST)
chain: B1 chain with E35D, L47M, K89N
B11: variant CD80 IgV-Fc E35D/M47L (Fc fusion, not shown: small tags and cut ends; a dimerising Fc or GST)
chain: B1 chain with E35D
B12: variant CD80 IgV-Fc E35D/M47L/L85Q (Fc fusion, not shown: small tags and cut ends; a dimerising Fc or GST)
chain: B1 chain with E35D, L85Q
B13: variant CD80 IgV-Fc E35D/M47L/V68M (Fc fusion, not shown: small tags and cut ends; a dimerising Fc or GST)
chain: B1 chain with E35D, V68M
B14: variant CD80 IgV-Fc E35D/M47L/V68M/L85Q (Fc fusion, not shown: small tags and cut ends; a dimerising Fc or GST)
chain: B1 chain with E35D, V68M, L85Q
B15: variant CD80 IgV-Fc E35D/M47V (Fc fusion, not shown: small tags and cut ends; a dimerising Fc or GST)
chain: B1 chain with E35D, L47V
B16: variant CD80 IgV-Fc E35D/N48K (Fc fusion, not shown: small tags and cut ends; a dimerising Fc or GST)
chain: B1 chain with E35D, L47M, N48K
B17: variant CD80 IgV-Fc E35D/V68M/L85Q (Fc fusion, not shown: small tags and cut ends; a dimerising Fc or GST)
chain: B1 chain with E35D, L47M, V68M, L85Q
B18: variant CD80 IgV-Fc K89N (Fc fusion, not shown: small tags and cut ends; a dimerising Fc or GST)
chain: B1 chain with L47M, K89N
B19: variant CD80 IgV-Fc M47L/V68M/L85Q (Fc fusion, not shown: small tags and cut ends; a dimerising Fc or GST)
chain: B1 chain with V68M, L85Q
B20: variant CD80 IgV-Fc M47V (Fc fusion, not shown: small tags and cut ends; a dimerising Fc or GST)
chain: B1 chain with L47V
B21: variant CD80 IgV-Fc M47V/K89N (Fc fusion, not shown: small tags and cut ends; a dimerising Fc or GST)
chain: B1 chain with L47V, K89N
B22: variant CD80 IgV-Fc M47V/N48K (Fc fusion, not shown: small tags and cut ends; a dimerising Fc or GST)
chain: B1 chain with L47V, N48K
B23: variant CD80 IgV-Fc Q33R/E35D/K37E/M47V/L85Q (Fc fusion, not shown: a dimerising Fc or GST)
chain: B1 chain with Q33R, E35D, K37E, L47V, L85Q
B24: WT CD80 ECD-Fc H22.6 (Fc fusion, not shown: a dimerising Fc or GST)
chain: VIHVTKEVKEVATLSCGHNVSVEELAQTRIYWQKEKKMVLTMMSGDMNIWPEYKNRTIFDITNNLSIVILALRPSDEGTYECVVLKYEKDAFKREHLAEVTLSVKADFPTPSISDFEIPTSNIRRIICSTSGGFPEPHLSWLENGEELNAINTTVSQDPETELYAVSSKLDFNMTTNHSFMCLIKYGHLRVNQTFNWNTTKQEHFPDN
notes: Control; The token H22.6 is not explained

What follows are binders tested against T1, human PD-L1, full-length, on CHO cells (human, UniProt Q9NZQ7 19-290) (assay: flow cytometry, CHO/PD-L1 cells; MFI relative to WT CD80 ECD-Fc).
T1 construct: also called huPD-L1; CD274
T1 sequence (Q9NZQ7 19-290): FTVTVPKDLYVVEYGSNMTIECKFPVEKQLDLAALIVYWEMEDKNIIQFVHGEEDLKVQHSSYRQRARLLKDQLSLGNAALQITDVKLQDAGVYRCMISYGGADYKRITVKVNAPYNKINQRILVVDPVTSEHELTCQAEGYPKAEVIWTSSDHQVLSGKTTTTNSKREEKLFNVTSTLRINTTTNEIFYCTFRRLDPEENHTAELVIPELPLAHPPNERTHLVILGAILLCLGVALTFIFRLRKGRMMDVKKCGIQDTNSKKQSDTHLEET

Row | Binder | Fold change to WT CD80
1 | B1 | 14.8 fold
2 | B2 | 17.2 fold
3 | B3 | 46.7 fold
4 | B4 | 219 fold
5 | B5 | 17.7 fold
6 | B6 | 20.2 fold
7 | B7 | 31.6 fold
8 | B8 | 58.8 fold
9 | B9 | 222 fold
10 | B10 | 5.9 fold
11 | B11 | 58.8 fold
12 | B12 | 47.6 fold
13 | B13 | 218 fold
14 | B14 | 120 fold
15 | B15 | 53.1 fold
16 | B16 | 51.1 fold
17 | B17 | 46.6 fold
18 | B18 | 0.4 fold
19 | B19 | 31.6 fold
20 | B20 | 18.1 fold
21 | B21 | 4.9 fold
22 | B22 | 24.1 fold

What follows are binders tested against T2, human CTLA4 (CTLA-4), full-length, on CHO cells (human, UniProt P16410 36-223) (assay: flow cytometry, CHO cells stably expressing CTLA4).
T2 construct: also called huCTLA4
T2 sequence (P16410 36-223): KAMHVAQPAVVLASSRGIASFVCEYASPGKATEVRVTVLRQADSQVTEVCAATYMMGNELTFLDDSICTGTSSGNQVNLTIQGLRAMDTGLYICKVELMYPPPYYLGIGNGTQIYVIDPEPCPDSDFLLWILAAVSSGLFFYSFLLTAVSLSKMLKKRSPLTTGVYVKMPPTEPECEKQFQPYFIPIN

Row | Binder | MFI at 33.3 nM
23 | B1 | 30800 MFI
24 | B2 | 41900 MFI
25 | B3 | 40200 MFI
26 | B4 | 34700 MFI
27 | B5 | 5330 MFI
28 | B6 | 42900 MFI
29 | B7 | 48000 MFI
30 | B8 | 38200 MFI
31 | B9 | 26200 MFI
32 | B10 | 21800 MFI
33 | B11 | 48000 MFI
34 | B12 | 12900 MFI
35 | B13 | 28600 MFI
36 | B14 | 28100 MFI
37 | B15 | 44600 MFI
38 | B16 | 41300 MFI
39 | B17 | 42800 MFI
40 | B18 | 944 MFI
41 | B19 | 11100 MFI
42 | B20 | 33300 MFI
43 | B21 | 32400 MFI
44 | B22 | 44600 MFI

The binders below were run against T3, human PD-L1 (full-length, expressed on CHO cells) (human, UniProt Q9NZQ7 19-290) (assay: flow cytometry, CHO cells expressing huPD-L1, PE anti-human Fc).
T3 construct: also called huPD-L1; CD274
T3 sequence (Q9NZQ7 19-290): as the sequence (Q9NZQ7 19-290) above

Row | Binder | MFI at 33.3 nM
45 | B23 | 44400 MFI

The binders below were run against T4, CD28 endogenously expressed on Jurkat/IL2 reporter cells (human, UniProt P10747 19-220) (assay: flow cytometry, Jurkat cells (CD28); MFI relative to WT CD80 ECD-Fc).
T4 construct: also called Jurkats (CD28)

Row | Binder | Fold change to WT CD80
46 | B1 | 0.4 fold
47 | B2 | 0.2 fold
48 | B3 | 0.8 fold
49 | B4 | 3.1 fold
50 | B5 | 0.8 fold
51 | B6 | 0.2 fold
52 | B7 | 0.3 fold
53 | B8 | 0.4 fold
54 | B9 | 0.7 fold
55 | B10 | 0.3 fold
56 | B11 | 0.6 fold
57 | B12 | 0.1 fold
58 | B13 | 1.8 fold
59 | B14 | 0.2 fold
60 | B15 | 0.7 fold
61 | B16 | 0.3 fold
62 | B17 | 0.1 fold
63 | B18 | 0.1 fold
64 | B19 | 0.1 fold
65 | B20 | 0.1 fold
66 | B21 | 0.3 fold
67 | B22 | 0.6 fold

Each binder was assayed against T5, CD28 on Jurkat/IL2 reporter cells (human, UniProt P10747 19-220) (assay: flow cytometry, Jurkat cells (CD28)).
T5 construct: whole, on cells; Endogenous CD28 of Jurkat cells; also called Jurkats (CD28)

Row | Binder | MFI at 33.3 nM
68 | B24 | 43 MFI

Each binder was assayed against T1, human PD-L1, full-length, on CHO cells (assay: flow cytometry, CHO cells stably expressing PD-L1).

Row | Binder | MFI at 33.3 nM
69 | B1 | 1900 MFI
70 | B2 | 2200 MFI
71 | B3 | 5980 MFI
72 | B4 | 28000 MFI
73 | B5 | 2270 MFI
74 | B6 | 2580 MFI
75 | B7 | 4040 MFI
76 | B8 | 7520 MFI
77 | B9 | 28400 MFI
78 | B10 | 757 MFI
79 | B11 | 7530 MFI
80 | B12 | 6100 MFI
81 | B13 | 27900 MFI
82 | B14 | 15300 MFI
83 | B15 | 6800 MFI
84 | B16 | 6540 MFI
85 | B17 | 5970 MFI
86 | B18 | 52.8 MFI
87 | B19 | 4040 MFI
88 | B20 | 2320 MFI
89 | B21 | 622 MFI
90 | B22 | 3080 MFI

What follows are binders tested against T2, human CTLA4 (CTLA-4), full-length, on … (assay: flow cytometry, CHO/CTLA4 cells; MFI relative to WT CD80 ECD-Fc).

Row | Binder | Fold change to WT CD80
91 | B1 | 0.8 fold
92 | B2 | 1 fold
93 | B3 | 1 fold
94 | B4 | 0.9 fold
95 | B5 | 0.1 fold
96 | B6 | 1.1 fold
97 | B7 | 1.2 fold
98 | B8 | 0.9 fold
99 | B9 | 0.6 fold
100 | B10 | 0.5 fold
101 | B11 | 1.2 fold
102 | B12 | 0.3 fold
103 | B13 | 0.7 fold
104 | B14 | 0.7 fold
105 | B15 | 1.1 fold
106 | B16 | 1 fold
107 | B17 | 1.1 fold
108 | B18 | 0 fold
109 | B19 | 0.3 fold
110 | B20 | 0.8 fold
111 | B21 | 0.8 fold
112 | B22 | 1.1 fold

The binders below were run against T6, CD28 (endogenously expressed on Jurkat/IL2 reporter cells) (human, UniProt P10747 19-220) (assay: flow cytometry, Jurkat/IL2 reporter cells (endogenous CD28), PE anti-human Fc).
T6 construct: Endogenous CD28 of Jurkat cells; also called human CD28

Row | Binder | MFI at 33.3 nM
113 | B23 | 258 MFI

Each binder was assayed against T4, CD28 endogenously expressed on … (assay: flow cytometry, Jurkat cells (CD28)).

Row | Binder | MFI at 33.3 nM
114 | B1 | 309 MFI
115 | B2 | 131 MFI
116 | B3 | 567 MFI
117 | B4 | 2180 MFI
118 | B5 | 556 MFI
119 | B6 | 134 MFI
120 | B7 | 196 MFI
121 | B8 | 268 MFI
122 | B9 | 464 MFI
123 | B10 | 236 MFI
124 | B11 | 411 MFI
125 | B12 | 46.3 MFI
126 | B13 | 1240 MFI
127 | B14 | 159 MFI
128 | B15 | 501 MFI
129 | B16 | 194 MFI
130 | B17 | 76.2 MFI
131 | B18 | 56.3 MFI
132 | B19 | 60.9 MFI
133 | B20 | 68.7 MFI
134 | B21 | 197 MFI
135 | B22 | 413 MFI

These binders were tested against T1, human PD-L1, full-length, on CHO cells (assay: flow cytometry; PD-L1 MFI over CD28 MFI).

Row | Binder | Ratio of PDL1:CD28
136 | B1 | 6.1 ratio
137 | B2 | 16.8 ratio
138 | B3 | 10.5 ratio
139 | B4 | 12.8 ratio
140 | B5 | 4.1 ratio
141 | B6 | 19.3 ratio
142 | B7 | 20.6 ratio
143 | B8 | 28.1 ratio
144 | B9 | 61.2 ratio
145 | B10 | 3.2 ratio
146 | B11 | 18.3 ratio
147 | B12 | 132 ratio
148 | B13 | 22.4 ratio
149 | B14 | 96.3 ratio
150 | B15 | 13.6 ratio
151 | B16 | 33.7 ratio
152 | B17 | 78.4 ratio
153 | B18 | 0.9 ratio
154 | B19 | 66.3 ratio
155 | B20 | 33.7 ratio
156 | B21 | 3.2 ratio
157 | B22 | 7.5 ratio
